Consider two molecules from publication PMC10797482, “The Interaction between Collagen 1 and High Mannose Type CD133 Up‐Regulates Glutamine Transporter SLC1A5 to Promote the Tumorigenesis of Glioblastoma Stem Cells” (Advanced Science, 2023).

The experiment concerns the target T1, His-COL1A1(972-1206) (human, UniProt P02452 972-1206).
T1 construct: also called COL1 (in the in vitro pull-downs); source: HEK293F, transfected (PEI), purified from the supernatants (Nickel Beads)
Description: pull-down; GST pull-down: 10 µg purified GST fusion protein with GST-beads incubated with His-COL1A1(972-1206) protein 1 h at 4 °C; washed three times with RIPA (1% Triton X-100, 50 mM Tris pH 7.4, 150 mM NaCl, 2 mM EDTA); blot with anti-His antibody. The conditions noted are these: both partners purified.

T1 sequence (P02452 972-1206): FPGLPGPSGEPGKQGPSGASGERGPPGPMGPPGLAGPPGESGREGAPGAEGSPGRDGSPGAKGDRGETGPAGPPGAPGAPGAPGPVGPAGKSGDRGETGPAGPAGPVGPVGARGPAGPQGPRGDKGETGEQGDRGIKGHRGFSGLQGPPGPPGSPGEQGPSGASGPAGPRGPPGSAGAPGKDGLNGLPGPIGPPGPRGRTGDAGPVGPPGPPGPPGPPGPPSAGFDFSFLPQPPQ

B1: GST-CD133 N-terminal segment (amino acids 43–81) (domain or fragment, human, UniProt O43490 43-81, looked up)
chain: TQDSHKAGPIGILFELVHIFLYVVQPRDFPEDTLRKFLQ
notes: source: E. coli BL21, purified (Glutathione-Superflow Resin)
Consider B1, for which the binding result is on record as “binds”.

B2: GST-CD133(20-108) (domain or fragment, human, UniProt O43490 20-108, looked up)
chain: GGQPSSTDAPKAWNYELPATNYETQDSHKAGPIGILFELVHIFLYVVQPRDFPEDTLRKFLQKAYESKIDYDKPETVILGLKIVYYEAG
notes: source: E. coli BL21(DE3), purified (Glutathione-Superflow Resin)
On to B2, for which the binding result was “binds”.
